Experimental data from patent US7387779B2, “Anti-angiogenic proteins and fragments and methods of use thereof” (Beth Israel Deaconess Medical Center, priority 1998, dated 2008).

Columns and labels:
C-PAE cells = assay: BrdU incorporation proliferation assay; assay type: cell-based, bovine; conditions: 0-2.0 μM
Description: The anti-proliferative affect of Tumstatin-44-131 on C-PAE cells was examined via BrdU incorporation assay. This assay uses bromodeoxyuridine (BrdU) instead of ^3H-thymidine as a thymidine analog. BrdU is incorporated into newly synthesized DNA strands in actively proliferating cells. The BrdU incorporated into the cells can then be detected immunochemically. The assay was conducted using the BrdU proliferation assay kit (CalbioChem, San Diego, Calif., USA) according to the manufacturer's instructions, with some modifications. C-PAE cells were seeded onto 96-well plates in DMEM containing 10% FCS. The next day, the medium was replaced with DMEM containing 2% FCS with or without E. Coli-expressed Tumstatin-44-131, or full-length Tumstatin expressed in 293 cells. The plates were then incubated for 46 hours, and the cells were then pulsed for two hours with 10 nM BrdU. The cells and DNA were then fixed to the wells, reacted with anti-BrdU primary and secondary antibodies, and then developed with a calorimetric reaction supplied with the kit. The plates were then read at OD450 on a plate reader (Molecular Dynamics, Sunnyvale, Calif., USA).

PC-3 cells = assay: Proliferation of control cells, 3H-thymidine incorporation; assay type: cell-based, human; conditions: non-endothelial control; Canstatin up to 40 mg/ml, Tumstatin up to 20 mg/ml
Description: (§1) C-PAE cells were grown to confluence in DMEM with 10% fetal calf serum (FCS) and kept contact inhibited for 48 hours. Control cells were 786-O (renal carcinoma) cells, PC-3 cells, HPEC cells, and A-498 (renal carcinoma) cells. Cells were harvested with trypsinization (Life Technologies/Gibco BRL, Gaithersburg, Md., USA) at 37° C. for five minutes. […] The cells were incubated for 24 hours at 37° C. with 5% CO2 and 95% humidity. Medium was removed and replaced with DMEM containing 0.5% FCS and 3 ng/ml bFGF (R&D Systems, Minneapolis, Minn., USA). Unstimulated controls received no bFGF. […] All wells received 1 μCurie of ^3H-thymidine at the time of treatment. After 24 hours, medium was removed and the wells were washed with PBS. Cells were extracted with 1N NaOH and added to a scintillation vial containing 4 ml of ScintiVerse II (Fisher Scientific, Pittsburgh, Pa., USA) solution. Thymidine incorporation was measured using a scintillation counter. The results are shown in FIGS. 3A and 3B, which are a pair of graphs showing incorporation of ^3H-thymidine into C-PAE cells treated with varying amounts of Arresten (FIG. 3A) or endostatin (FIG. 3B). Arresten appeared to inhibit thymidine incorporation in C-PAE as well as did endostatin. Behavior of control cells treated with Arresten and endostatin is also shown in FIG. 4A, 4B, 4C, and 4D, with Arresten having little effect on 786-O cells (FIG. 4A), PC-3 cells (FIG. 4B), or HPEC cells (FIG. 4C). Endostatin had little effect on A-498 cells (FIG. 4D). All groups in FIGS. 3 and 4 represent triplicate samples. […] (C-PAE) cells were grown to confluence in DMEM with 10% fetal calf serum (FCS) and kept contact inhibited for 48 hours. Cells were harvested by trypsinization (Life Technologies/Gibco BRL, Gaithersberg, Md., USA) at 37° C. for 5 minutes. […] The cells were incubated for 24 hours at 37° C. C. with 5% CO2 and 95% humidity. Medium was removed, and replaced with DMEM containing 0.5% FCS (unstimulated) or 10% FCS (stimulated and treated cells). 786-O, PC-3 and HEK 293 cells served as controls and were also grown to confluency, trypsinized and plated in the same manner. Cells were treated with concentrations of Canstatin or endostatin ranging from 0.025 to 40 mg/ml in triplicate. In thymidine incorporation experiments, all wells received […] of ^3H-thymidine at the time of treatment. After 24 hours, medium was removed and the wells were washed 3 times with PBS. Radioactivity was extracted with 1N NaOH and added to a scintillation vial containing 4 ml of ScintiVerse II (Fisher Scientific, Pittsburgh, Pa., USA) solution. Thymidine incorporation was measured using a scintillation counter. […]

[1] = tested on: 786-O (renal carcinoma) cells; assay: as above; assay type: cell-based, human; conditions: non-endothelial control; Canstatin up to 40 mg/ml, Tumstatin up to 20 mg/ml
Description: as §1

MLEC β3−/− = assay: Protein synthesis and cap-dependent translation in β3-integrin deficient endothelial cells; assay type: cell-based, mouse; conditions: 4.5 μM; rapamycin 100 ng/ml
From the text: (§2) Therefore, to evaluate the effect of tumstatin peptides on cap-dependent and independent translation, endothelial cells were isolated from lungs of 12-week-old mice that were deficient in the expression of αvβ3 integrin (i.e., 3 integrin-deficient mice), and also their wild-type counterparts (Hodivala-Dilke, K. M. et al., 1999, J. Clin. Invest. 103:229-38). Briefly, ICAM-2 expressing MLEC were enriched using rat anti-mouse ICAM-2 (# 01800D, PharMingen, San Diego, Calif., USA) conjugated to magnetic beads (Dynabeads M-450, Dynal, Oslo, Norway). MLEC were maintained in 40% Ham's F-12,40% DME-Low Glucose, 20% FBS supplemented with heparin, endothelial mitogen (Biomedical Technologies, Inc., Cambridge, Mass., USA), glutamine and penicillin/streptomycin. Wild-type and β3-integrin-deficient mouse embryonic fibroblasts were prepared (Hodivala-Dilke, K. M. et al., 1999, J. Clin. Invest. 103:229-38). MEFs were maintained in DMEM containing 10% FBS. MLEC were characterized for homogeneity by morphological observations and by immunofluorescence staining for endothelial-specific markers. Cells between passage 3 and 6 were used for the experiments.

MLEC β3+/+ = assay: Protein synthesis and cap-dependent translation in wild-type mouse lung endothelial cells; assay type: cell-based; conditions: 4.5 μM; rapamycin 100 ng/ml
From the text: as §2

B1: Tumstatin-44-131: residues 44 to 131 of full-length Tumstatin (SEQ ID NO:33) (protein)
chain: FSFLFVQGNQRAHGQDLGTLGSCLQRFTTMPFLFCNVNDVCNFASRNDYSYWLSTPALMPMNMAPITGRALEPYISRCTVCEGPAIAI
modifications: Tumstatin-45-132 (amino acids 45-132 of SEQ ID NO10)
With B1 as the molecule, how does the “incorporation of BrdU” value (C-PAE cells) read?
Its value is “decreased incorporation of BrdU”.

B2: Canstatin: NC1 domain of the α2 chain of Type IV collagen (SEQ ID NO:6) (protein, listed as Homo sapiens)
chain: VSIGYLLVKHSQTDQEPMCPVGMNKLWSGYSLLYFEGQEKAHNQDLGLAGSCLARFSTMPFLYCNPGDVCYYASRNDKSYWLSTTAPLPMMPVAEDEIKPYISRCSVCEAPAIAIAVHSQDVSIPHCPAGWRSLWIGYSFLMHTAAGDEGGGQSLVSPGSCLEDFRATPFIECNGGRGTCHYYANKYSFWLTTIPEQSFQGSPSADTLKAGLIRTHISRCQVCMKNL
With B2 as the molecule, how does the effect on proliferation (PC-3 cells) read?
The effect on proliferation was “No significant effect”.

What about the effect on proliferation [1] of the same molecule?
The effect on proliferation was “No significant effect”.

B3: Tumstatin: NC1 domain of the α3 chain of type IV collagen, residues 1-244 (SEQ ID NO:10) (protein, listed as Homo sapiens)
chain: GLKGKRGDSGSPATWTTRGFVFTRHSQTTAIPSCPEGTVPLYSGFSFLFVQGNQRAHGQDLGTLGSCLQRFTTMPFLFCNVNDVCNFASRNDYSYWLSTPALMPMNMAPITGRALEPYISRCTVCEGPAIAIAVHSQTTDIPPCPHGWISLWKGFSFIMFTSAGSEGTGQALASPGSCLEEFRASPFLECHGRGTCNYYSNSYSFWLASLNPERMFRKPIPSTVKAGELEKIISRCQVCMKKRH
For B3, which “cap-dependent protein synthesis in αvβ3 integrin deficient (β3−/−) endothelial cells” value (MLEC β3−/−) is on record?
The value was “did not have any effect”.

What about the effect on proliferation (PC-3 cells) of the same molecule?
The effect on proliferation was “no significant anti-proliferative effect”.

And the effect on proliferation [1]?
Its effect on proliferation is “no significant anti-proliferative effect”.

And the “protein synthesis / cap-dependent translation in control (β3+/+) endothelial cells” value (MLEC β3+/+)?
The value was “inhibited protein synthesis”.

And the “incorporation of BrdU” value (C-PAE cells)?
Its value is “decreased incorporation of BrdU”.

B4: endostatin: tumor associated angiogenesis inhibitor used as comparator (protein, UniProt P39060 1572-1754, looked up)
Endostatin: HSHRDFQPVLHLVALNSPLSGGMRGIRGADFQCFQQARAVGLAGTFRAFLSSRLQDLYSIVRRADRAAVPIVNLKDELLFPSWEALFSGSEGPLKPGARIFSFDGKDVLRHPTWPQKSVWHGSDPNGRRLTESYCETWRTEAPSATGQASSLLGGRLLGQSAASCHHAYIVLCIENSFMTASK
modifications: Endostatin
What does the source list for B4?
cap-dependent protein synthesis in αvβ3 integrin deficient (β3−/−) endothelial cells (MLEC β3−/−): did not exhibit this property; protein synthesis / cap-dependent translation in control (β3+/+) endothelial cells (MLEC β3+/+): did not exhibit this property
